For assay [1], the target named is scavenger receptor class B-type I (SR-B1) (UniProt Q8WTV0). Nature of the assay: AlphaScreen or HTRF.
Assay [2] concerns the target CD81 (human (endogenous in PBMCs)) (UniProt P60033). Description: flow cytometry on cells; 1 x 10^6 PBMCs incubated 2 h with 12.5 µM POL, then anti-CD81-FITC antibody at 4 °C for 30 min; binding taken from the fall in unbound CD81.
Assay [3] has as its target HCV NS3/NS4A protease (Hepatitis C virus (isolate BK), UniProt P26663). The following applies: NS4A/NS4B-derived fluorogenic peptide substrate, 30 min, 37 °C; used as comparator drug.
Assay [4] has as its target T1, HBV polymerase (Hepatitis B virus ayw/Japan/JYW796/1988, UniProt Q9QMI1).
T1 construct: gene P
Description: [3H]TTP incorporation, scintillation counting. The format is biochemical.

pIC50, pKd, pKi: −log10 of the molar value.

Sequence of scavenger receptor class B-type I (SR-B1) (Q8WTV0 whole entry): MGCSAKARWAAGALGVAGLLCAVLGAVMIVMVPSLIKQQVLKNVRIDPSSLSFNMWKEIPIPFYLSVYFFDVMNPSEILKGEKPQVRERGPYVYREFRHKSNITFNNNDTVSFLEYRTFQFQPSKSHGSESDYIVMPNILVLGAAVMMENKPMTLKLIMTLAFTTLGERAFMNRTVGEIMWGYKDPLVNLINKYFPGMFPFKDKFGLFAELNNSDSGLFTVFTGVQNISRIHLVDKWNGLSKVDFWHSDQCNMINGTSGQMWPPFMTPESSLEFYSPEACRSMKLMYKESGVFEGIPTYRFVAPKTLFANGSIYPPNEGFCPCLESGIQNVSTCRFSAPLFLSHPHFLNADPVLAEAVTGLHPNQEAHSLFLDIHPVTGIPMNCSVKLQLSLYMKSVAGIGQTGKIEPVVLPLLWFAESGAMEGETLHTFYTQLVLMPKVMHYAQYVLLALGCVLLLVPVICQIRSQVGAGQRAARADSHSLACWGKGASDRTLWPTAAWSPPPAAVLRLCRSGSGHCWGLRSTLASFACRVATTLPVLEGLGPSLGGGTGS
Sequence of CD81 (human (endogenous in PBMCs)) (P60033 whole entry): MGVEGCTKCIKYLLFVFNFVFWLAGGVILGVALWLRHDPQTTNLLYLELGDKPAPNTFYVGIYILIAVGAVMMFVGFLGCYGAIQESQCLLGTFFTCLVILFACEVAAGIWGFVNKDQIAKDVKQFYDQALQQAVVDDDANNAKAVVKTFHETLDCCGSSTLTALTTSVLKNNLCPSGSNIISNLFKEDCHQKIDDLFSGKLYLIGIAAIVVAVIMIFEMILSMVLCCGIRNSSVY
Sequence of HCV NS3/NS4A protease (P26663 1027-1657): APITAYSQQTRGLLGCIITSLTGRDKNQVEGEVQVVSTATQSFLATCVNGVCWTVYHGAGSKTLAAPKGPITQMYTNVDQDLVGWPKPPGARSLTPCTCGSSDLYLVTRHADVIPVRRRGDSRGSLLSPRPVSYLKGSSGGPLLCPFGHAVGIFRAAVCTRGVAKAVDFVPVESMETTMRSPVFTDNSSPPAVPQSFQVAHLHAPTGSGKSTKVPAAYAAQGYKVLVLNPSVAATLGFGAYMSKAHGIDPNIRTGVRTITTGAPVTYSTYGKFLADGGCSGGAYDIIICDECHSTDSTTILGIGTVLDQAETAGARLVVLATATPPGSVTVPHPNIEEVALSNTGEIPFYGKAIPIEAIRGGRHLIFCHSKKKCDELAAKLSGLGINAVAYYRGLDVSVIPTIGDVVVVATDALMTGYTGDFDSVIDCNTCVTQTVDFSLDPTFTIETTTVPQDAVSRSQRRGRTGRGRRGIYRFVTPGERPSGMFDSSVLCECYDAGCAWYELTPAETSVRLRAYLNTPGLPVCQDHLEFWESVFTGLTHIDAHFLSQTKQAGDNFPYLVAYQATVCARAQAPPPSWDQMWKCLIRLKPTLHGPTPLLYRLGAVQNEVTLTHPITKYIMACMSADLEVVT
Sequence of HCV NS3/NS4A protease (P26663 1658-1711): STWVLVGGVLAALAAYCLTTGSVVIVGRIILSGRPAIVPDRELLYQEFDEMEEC
T1 sequence (Q9QMI1 whole entry): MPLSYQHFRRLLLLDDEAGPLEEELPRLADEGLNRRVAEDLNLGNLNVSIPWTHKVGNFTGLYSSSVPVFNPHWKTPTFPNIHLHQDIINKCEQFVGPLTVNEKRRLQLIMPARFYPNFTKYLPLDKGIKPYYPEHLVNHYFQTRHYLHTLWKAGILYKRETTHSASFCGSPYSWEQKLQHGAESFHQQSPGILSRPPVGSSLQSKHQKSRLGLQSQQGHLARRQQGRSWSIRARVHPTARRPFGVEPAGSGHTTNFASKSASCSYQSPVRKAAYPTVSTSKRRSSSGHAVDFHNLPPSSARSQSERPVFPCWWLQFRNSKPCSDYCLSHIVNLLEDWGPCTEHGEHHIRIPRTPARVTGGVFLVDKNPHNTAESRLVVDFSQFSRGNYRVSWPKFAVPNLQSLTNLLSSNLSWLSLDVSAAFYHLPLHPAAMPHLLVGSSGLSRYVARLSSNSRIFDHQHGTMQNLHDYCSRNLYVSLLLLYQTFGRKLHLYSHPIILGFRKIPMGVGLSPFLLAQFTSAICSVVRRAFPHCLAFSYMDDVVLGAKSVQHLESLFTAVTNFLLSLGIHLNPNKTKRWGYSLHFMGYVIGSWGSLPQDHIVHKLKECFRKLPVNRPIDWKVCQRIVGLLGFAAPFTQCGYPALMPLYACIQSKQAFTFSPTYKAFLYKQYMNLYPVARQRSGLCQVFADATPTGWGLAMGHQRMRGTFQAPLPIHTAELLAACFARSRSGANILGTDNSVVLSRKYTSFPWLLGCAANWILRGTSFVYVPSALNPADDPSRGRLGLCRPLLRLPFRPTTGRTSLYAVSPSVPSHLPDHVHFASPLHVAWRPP

As for “Pleurotus ostreatus lectin (POL) (natural protein)”, in assay [1], the pIC50 was 8.00, the negative logarithm of the Kd (pKd) was 8.44 and the negative-log Ki (pKi) was 8.52. Moreover, in assay [2], the percentage of binding to CD81 at 12.5 µM came to 58.8%.
Turning to `CC(C)OC(=O)[C@H](C)N[P@](=O)(OC[C@H]1O[C@@H](n2ccc(=O)[nH]c2=O)[C@](C)(F)[C@@H]1O)Oc1ccccc1` [SOF, sofosbuvir], the negative-log IC50 (pIC50) in assay [3] was 7.81.
In turn, `Nc1ccn([C@@H]2CS[C@H](CO)O2)c(=O)n1` [LAM, lamivudine] showed a pIC50 in assay [4] of 8.19.

The values above are taken from paper PMC12311003, “Biochemical characterization of a novel purified lectin extracted from Pleurotus ostreatus mushroom for its antiviral activity” (Scientific Reports, 2025).
